In the supplement of paper PMC10567573 one finds protein stability index data, which are given here for 72 sequences.

The nature of the series: protein stability index of a GFP-peptide fusion (GPS, HEK-293T) (PSI 1-6); higher = more stable.
[1] abbreviates: treatment: DMSO, c terminus: a fixed tail appended.
Setting [2] is: treatment: MLN4924 1 uM, 8 h, c terminus: a fixed tail appended.

± gives the standard deviation.
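Also: 24-mer peptide tiles fused after GFP, lentivirally expressed, FACS-sorted into six equal bins by GFP/DsRed ratio, decoded by Illumina sequencing, PSI is the read-weighted mean bin number.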

For SLLVLIEPVAAGSGIPEVKCYLNG [CLCN6], the protein stability index runs as follows: under setting [1], 1.99 ± 0.92; under setting [2], 2.44 ± 0.43.
In the same order, the values of LKGYPSLMRSQSPKAQPQTWKSGK [TRIM29] are 3.88 ± 0.36 and 3.93 ± 0.22.
The like results for NHHSPGGSSDASGSYSSTMNGHQN [ESRRG] were, in that order, 4.86 ± 0.23 and 5.05 ± 0.17.
In the same order, the values of RQLPPPPTPANEERRGGLPPLPLH [WAS] are 4.53 ± 0.22 and 4.52 ± 0.14.
With MSFTTRSTFSTNYRSLGSVQAPSY [KRT18], the protein stability index under setting [1] came to 2.37 ± 0.29 and the protein stability index under setting [2] amounted to 2.38 ± 0.3.
In the same order, the values of YISETVLAIDAIHQLGFIHRDIKP [STK38L] are 2.33 ± 0.74 and 2.56 ± 0.24.
The like results for PSGAGKTVVGVPSGKVSSSSSSLG [ZC2HC1A] were, in that order, 4.47 ± 0.35 and 4.65 ± 0.14.
The like results for HVDPEEPWSPCSARFITDFLDNGY [ADAMTS4] were, in that order, 2.57 ± 0.39 and 2.88 ± 0.71.
Turning to QPVMQSDRTAIRSDTTHLVTLGGV [KLHL13], the protein stability index reads like this: under setting [1], 3.88 ± 0.28; under setting [2], 3.83 ± 0.35.
In the same order, the values of KKQQELTAAVLGLICEGLYPASIV [ZBED1] are 2.97 ± 0.63 and 3.02 ± 0.58.
The like results for KTEAEIAHIALETLEGHQRAIMAH [FLOT1] were, in that order, 4.1 ± 0.12 and 4.06 ± 0.3.
In the same order, the values of PSWAALNSSTWGSLKQALKGLSVE [SNX8] are 2.94 ± 0.17 and 3.46 ± 0.29.
Regarding AEPAPRAREGGGCGRSEVRPVAPR [SMAD6], the protein stability index turned out to be 4.35 ± 0.093 under setting [1] and 4.15 ± 0.4 under setting [2].
The like results for VLLNSLQQYRQDQRDGSKSEDELD [CCND2] were, in that order, 4.32 ± 0.18 and 4.15 ± 0.52.
The like results for RWCCCCGERETRTPEELTILGETQ [CLCN6] were, in that order, 3.76 ± 0.27 and 3.79 ± 0.18.
In the same order, the values of EVKGTLEGDVCGVEPPGPGDTVVQ [PBXIP1] are 5.48 ± 0.23 and 5.37 ± 0.11.
The sequence FTIHNYSHSRERPYKCVQPDCGKA [PLAGL1] returned a protein stability index under setting [1] of 2.86 ± 0.45 and a protein stability index under setting [2] of 2.89 ± 0.37.
Consider TIQKQLKDHSCKDNIREAFQIYDK [EFHC1], for which the protein stability index by setting is: under setting [1], 3.22 ± 0.13; under setting [2], 3.13 ± 0.13.
The like results for SDTTPLPSWAALNSSTWGSLKQAL [SNX8] were, in that order, 2.7 ± 0.2 and 2.94 ± 0.12.
For the sequence PAFVKFAYVAEREDELSLVKGSRV [NCK2], the protein stability index is 3.09 ± 0.34 under setting [1] and 3.08 ± 0.39 under setting [2].
The like results for IIKICDFGFAQILIPGDAYTDYVA [CDKL4] were, in that order, 2.6 ± 0.59 and 2.81 ± 0.95.
In the same order, the values of GSYSSTMNGHQNGLDSPPLYPSAP [ESRRG] are 4.07 ± 0.23 and 4.3 ± 0.14.
Consider FLTLEKFTIHNYSHSRERPYKCVQ [PLAGL1], for which the protein stability index runs as follows: under setting [1], 2.68 ± 0.26; under setting [2], 2.13 ± 0.24.
The like results for IYSTKLYRFFKYIENRDVAKSVLK [BTBD10] were, in that order, 3.1 ± 0.97 and 2.37 ± 0.61.
The like results for ASKSKGAAVKLADFGLAIEVQGDQ [CAMK2D] were, in that order, 4.13 ± 0.37 and 4.37 ± 0.3.
In the same order, the values of LTLVFFVQITGQPNILFYASTVLK [SLC2A12] are 3.19 ± 0.51 and 3.5 ± 0.59.
On to AKVLTLSDDLERTIEERVNILFDF [EIF5], for which the protein stability index under setting [1] stood at 2.33 ± 0.36 and the protein stability index under setting [2] worked out at 2.4 ± 0.21.
In the same order, the values of KLLDHDNVKYLKKILDELEKVLDQ [GDAP1] are 2.42 ± 0.56 and 2.32 ± 0.47.
Consider QNLLKELQDLALQGAKERAHQQKK [CHGA], for which the protein stability index was 4.75 ± 0.23 under setting [1] and 4.52 ± 0.14 under setting [2].
The like results for IIALIALSVGQYNCPGQYTFSMPS [CD69] were, in that order, 3.51 ± 0.45 and 3.3 ± 0.48.
In the same order, the values of DAHLVLDGEEIPVQKNILAAASPY [GAN] are 4.18 ± 0.12 and 4.16 ± 0.3.
In the same order, the values of GPQSRELTLKVLRSSSCGDTELLG [C2CD2L] are 3.47 ± 0.28 and 3.59 ± 0.2.
Take SCIGNKQKAVKSCLVCQASFCELH [TRIM29]: the protein stability index by setting is: under setting [1], 3.51 ± 0.16; under setting [2], 3.79 ± 0.34.
In the same order, the values of DIDGDVLVFLELAQFHCAYQLADW [RHOBTB2] are 2.76 ± 0.47 and 3.23 ± 0.62.
On to SQELPPPDPGPSPEASHLRFRRFR [ZNF263], for which the protein stability index reads like this: under setting [1], 4.76 ± 0.21; under setting [2], 5.14 ± 0.12.
Consider RAKFKRKYKVKLVEKRAFREIQL [NOP53], for which the protein stability index runs as follows: (treatment: DMSO, c terminus: native) 2.56 ± 0.36; (treatment: MLN4924 1 uM, 8 h, c terminus: native) 2.79 ± 0.17.
As to FEGDMGAAGGDGELGSPLRRSISS [PSD2], the protein stability index reads like this: under setting [1], 4.81 ± 0.2; under setting [2], 4.94 ± 0.13.
In the case of QGLLHEAGSTDDRIVVPQRGRSTR [SPNS1], the protein stability index is 5.13 ± 0.32 under setting [1] and 5.14 ± 0.15 under setting [2].
The like results for DSDIPEIPPSSDRTPEILKKALSG [CDS1] were, in that order, 5.2 ± 0.21 and 5.39 ± 0.19.
In the same order, the values of RKKSGDLKKAKVQVERMREVNSRC [FBXO34] are 4.15 ± 0.17 and 4.38 ± 0.42.
For the sequence EKDLVGLAQIAEVLEMFDLRMMVE [RHOBTB1], the protein stability index was found to be 2.46 ± 0.21 under setting [1] and 2.22 ± 0.38 under setting [2].
In the same order, the values of SRHLNSQVKKTTTRWCHIVRDSDS [PHTF1] are 2.33 ± 0.54 and 3.15 ± 0.66.
In the same order, the values of EKEIPVLNELPVPMVARYIRINPQ [CPXM2] are 3.16 ± 0.26 and 3.25 ± 0.18.
The like results for SLQRWEHLKKVASRYQNNIKNDKY [PRIM1] were, in that order, 2.47 ± 0.25 and 2.91 ± 0.56.
Regarding TYRRLLEDGEDFNLGDALDSSNSM [KRT18], the protein stability index is, setting by setting: under setting [1], 4.29 ± 0.14; under setting [2], 4.52 ± 0.21.
SEEMIAEFKAAFDMFDADGGGDIS [TNNC2] gave a protein stability index under setting [1] of 5.16 ± 0.32 and a protein stability index under setting [2] of 5.11 ± 0.43.
In the same order, the values of CLHHICTNYNNVCRKFPRDMKAMS [RHOBTB2] are 2.26 ± 0.18 and 2.42 ± 0.067.
The like results for SKSNLGWTPLHLACYFGHRQVVQD [OSBPL1A] were, in that order, 2.62 ± 0.6 and 2.12 ± 0.55.
In the same order, the values of FDIRILMAKSVKYTVNFLEAKEGD [CARM1] are 2.27 ± 0.28 and 2.33 ± 0.33.
LEDGFYLTAFICFLVFILNAGLVW [MFSD9] had a protein stability index under setting [1] of 3.23 ± 0.84 and a protein stability index under setting [2] of 2.73 ± 0.95.
The like results for ELQIELLRETKRKYESVLQLGRAL [ARFIP2] were, in that order, 2.54 ± 0.12 and 2.55 ± 0.23.
In the same order, the values of VACGMVHLLIPELGACVAPGGNLI [DNAAF3] are 2.78 ± 0.27 and 3.11 ± 0.26.
Consider KLLVVDRTRRLGNMKNGANDVKHH [PRKX], for which the protein stability index came out at 3.23 ± 0.46 under setting [1] and 3.48 ± 0.15 under setting [2].
Regarding PGYLPGAMPPYGQGPPMVPPYQGG [ZNF207], the protein stability index under setting [1] was 3.57 ± 0.2 and the protein stability index under setting [2] was found to be 3.42 ± 0.2.
In the same order, the values of KSEGQKIPKVELQISIYGVKILEP [GULP1] are 2.84 ± 1 and 2.3 ± 1.1.
In the same order, the values of LDFLHSANFSLGSINQRLNKRERS [RNF180] are 3.69 ± 0.24 and 3.86 ± 0.4.
In the case of NHTTVTNSTPLRAACFDGRLDIVK [FEM1B], the protein stability index reads like this: under setting [1], 3.46 ± 0.23; under setting [2], 3.4 ± 0.25.
The like results for MPSGSEEKILRELSEEEEDEEEEE [KCNA4] were, in that order, 5.53 ± 0.59 and 5.69 ± 0.14.
The like results for MPPKKQAQAGGSKKAEQKKKEKII [ZC3H15] were, in that order, 4.63 ± 0.18 and 5.1 ± 0.39.
In the same order, the values of QKEGEFSTCFTELQRDFLKQRPTK [OAS1] are 4.26 ± 0.45 and 4.22 ± 0.3.
As for SLAEVRVGYQSQNISCFFRLVDRD [MYORG], the protein stability index runs as follows: under setting [1], 2.42 ± 0.24; under setting [2], 2.45 ± 0.26.
In the same order, the values of CRRSVRLALGRERLGEIHTLPLPA [SPSB1] are 3 ± 0.17 and 2.98 ± 0.11.
The like results for RIFTSNTHSSVVLQGFDQLRLEGL [KLHL13] were, in that order, 2.42 ± 0.18 and 2.49 ± 0.27.
The like results for KHERTHEIIPINVNNNYEHRHTSH [SPRY1] were, in that order, 3.68 ± 0.37 and 3.91 ± 0.34.
Turning to KMPVYSGSRPACQLQVPTLRQQCA [ELOA2], the protein stability index by setting is: under setting [1], 3.23 ± 0.32; under setting [2], 3.14 ± 0.15.
The like results for CLGLSYDGLLGDNQIMPKTGFLII [MAGEA6] were, in that order, 3.01 ± 0.6 and 2.49 ± 0.44.
The like results for WIHRPGCRCKNSNTVYCKLESCPS [SPRY1] were, in that order, 2.62 ± 0.26 and 3.21 ± 0.78.
The like results for QLQDQDQKLLEQTQIIGEQNARLA [FBXO28] were, in that order, 4.75 ± 0.18 and 4.74 ± 0.15.
Take YVDIHTGLSGSGVAFVCAFSEALA [PYCR3]: the protein stability index turned out to be 2.72 ± 1.2 under setting [1] and 2.4 ± 1 under setting [2].
In the same order, the values of EALITDPDEMRMQALLIRERILGP [FEM1A] are 3.56 ± 0.26 and 3.45 ± 0.26.
The like results for EAVPEGPDGGGPWLEDEPGRGAQG [ZSWIM9] were, in that order, 5.45 ± 0.52 and 5.56 ± 0.35.
Sequence ILTIMATLKIRNSNFYTVAVTSLS [TMEM106C] yielded a protein stability index under setting [1] of 3.3 ± 0.36 and a protein stability index under setting [2] of 3.16 ± 0.38.
